Experimental data from patent publication US20240279310A1.
Where two headings read alike, the source gives them in different places.

B1: 26 TACI CRD2-Fc (TACI vTD SEQ ID NO:26, K77E/F78Y/Y102D; Fc fusion SEQ ID NO: 167) (Fc fusion)
chain: SLSCRKEQGEYYDHLLRDCISCASICGQHPKQCADFCENKLRSGSGGGGSEPKSSDKTHTCPPCPAPEAEGAPSVFLFPPKPKDTLMISRTPEVTCVVVDVSHEDPEVKFNWYVDGVEVHNAKTKPREEQYNSTYRVVSVLTVLHQDWLNGKEYKCKVSNKALPAPIEKTISKAKGQPREPQVYTLPPSRDELTKNQVSLTCLVKGFYPSDIAVEWESNGQPENNYKTTPPVLDSDGSFFLYSKLTVDKSRWQQGNVFSCSVMHEALHNHYTQKSLSLSPG
B2: belimumab, anti-BAFF monoclonal antibody (antibody, INN chains, looked up, V domains shown)
VH: QVQLQQSGAEVKKPGSSVRVSCKASGGTFNNNAINWVRQAPGQGLEWMGGIIPMFGTAKYSQNFQGRVAITADESTGTASMELSSLRSEDTAVYYCARSRDLLLFPHHALSPWGRGTMVTVSS
VL: SSELTQDPAVSVALGQTVRVTCQGDSLRSYYASWYQQKPGQAPVLVIYGKNNRPSGIPDRFSGSSSGNTASLTITGAQAEDEADYYCSSRDSSGNHWVFGGGTELTVLG
B3: atacicept (WT TACI-Fc sequences corresponding to atacicept, containing WT TACI 30-110; SEQ ID NO:132) (Fc fusion)
chain: AMRSCPEEQYWDPLLGTCMSCKTICNHQSQRTCAAFCRSLSCRKEQGKFYDHLLRDCISCASICGQHPKQCAYFCENKLRSEPKSSDKTHTCPPCPAPEAEGAPSVFLFPPKPKDTLMISRTPEVTCVVVDVSHEDPEVKFNWYVDGVEVHNAKTKPREEQYNSTYRVVSVLTVLHQDWLNGKEYKCKVSNKALPSSIEKTISKAKGQPREPQVYTLPPSRDELTKNQVSLTCLVKGFYPSDIAVEWESNGQPENNYKTTPPVLDSDGSFFLYSKLTVDKSRWQQGNVFSCSVMHEALHNHYTQKSLSLSPGK
B4: anti-APRIL mAb BION-1301 (antibody, INN chains, looked up, V domains shown)
VH: QVQLVQSGAEVKKPGASVKVSCKASGYTFTDYTIHWVRQATGQGLEWMGWIYPLRGSINYAQKFQGRVTMTADKSISTVYMELSSLRSEDTAVYFCARHGAYYSNAFDYWGQGTLVTVSS
VL: EIVMTQSPATLSVSPGERATLSCRASESVDNDGIRFLHWYQQKPGQAPRLLIYRASTRATGIPARFSGSGSRTEFTLTISSLQSEDFAVYYCQQSNKDPYTFGGGTKVEIK

What was measured:
Experiment in all cases: cell-based or functional assay
[1] = molecular target: APRIL+BAFF (15 nM APRIL+10 nM BAFF) in combination
[2] = molecular target: APRIL+BAFF (15 nM APRIL+10 nM BAFF) in combination; remark: listed apart in the source
[3] = molecular target: recombinant human APRIL (Tonbo Biosciences) (human) (UniProt O75888)
recombinant human APRIL (Tonbo Biosciences) (human), sequence (O75888 105-250 limits assumed): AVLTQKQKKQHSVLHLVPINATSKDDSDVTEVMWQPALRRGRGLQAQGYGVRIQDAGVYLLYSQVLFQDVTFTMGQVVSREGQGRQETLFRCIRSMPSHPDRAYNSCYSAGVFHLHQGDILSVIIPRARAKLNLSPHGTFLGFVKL

| Binder | IC50 (pM) BAFF + APRIL [1] [pM] | IC50 (pM) BAFF + APRIL [2] [pM] | IC50 (pM) APRIL [3] [pM] |
| --- | --- | --- | --- |
| B1 | 1390 |  |  |
| B2 |  | > 100000 |  |
| B3 | 7720 |  |  |
| B4 |  | > 100000 | 4900 |
